Experimental data taken from patent US20090074790.

Target: recombinant GST-Smad2 fusion protein, phosphorylated in vitro by TβR-I kinase, Q15796
Sequence (Q15796 whole entry, the tested form may be a part): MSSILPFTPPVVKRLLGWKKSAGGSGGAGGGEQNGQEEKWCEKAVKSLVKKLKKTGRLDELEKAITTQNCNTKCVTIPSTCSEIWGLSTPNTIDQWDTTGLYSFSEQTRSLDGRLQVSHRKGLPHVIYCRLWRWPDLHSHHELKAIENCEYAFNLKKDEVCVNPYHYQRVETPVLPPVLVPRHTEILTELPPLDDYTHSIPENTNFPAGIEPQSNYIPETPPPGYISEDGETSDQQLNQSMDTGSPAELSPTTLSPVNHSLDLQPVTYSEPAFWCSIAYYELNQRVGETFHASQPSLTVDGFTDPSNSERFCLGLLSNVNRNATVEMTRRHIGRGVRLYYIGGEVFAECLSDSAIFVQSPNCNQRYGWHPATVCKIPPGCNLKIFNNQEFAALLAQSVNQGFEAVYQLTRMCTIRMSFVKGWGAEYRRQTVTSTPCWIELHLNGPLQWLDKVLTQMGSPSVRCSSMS

B1: purified recombinant constitutively active TβR-I kinase (protein)
chain: CHNRTVIHHRVPNEEDPSLDRPFISEGTTLKDLIYDMTTSGSGSGLPLLVQRTIARTIVLQESIGKGRFGEVWRGKWRGEEVAVKIFSSREERSWFREAEIYQTVMLRHENILGFIAADNKDNGTWTQLWLVSDYHEHGSLFDYLNRYTVTVEGMIKLALSTASGLAHLHMEIVGTQGKPAIAHRDLKSKNILVKKNGTCCIADLGLAVRHDSATDTIDIAPNHRVGTKRYMAPEVLDDSINMKHFESFKRADIYAMGLVFWEIARRCSIGGIHEDYQLPYYDLVPSDPSVEEMRKVVCEQKLRPNIPNRWQSCEALRVMAKIMRECWYANGAARLTALRIKKTLSQLSQQEGIKM
  in vitro kinase assay, density of the pSmad2 band on Western blot: a band of approximately 58 kDa, the density of which is proportional to the amount of active enzyme
